According to publication PMC4018492 (Genes & Development, 2014):

How the values were obtained:
[1] = target: T1, WDR5_(23–334) (human, UniProt P61964 23-334); assay: ITC
[2] = target: 6xHis-WDR5 (residues 23–334) (human, UniProt P61964 23-334); assay: pull-down
[3] = target: T1, WDR5_(23–334); assay: SEC

With DGTCVAARTRPVLSY [KANSL1 WIN motif-containing peptide (585-DGTCVAARTRPVLS-598-Y)] the Kd [1] was 180 nM.

B1: KANSL1_(537–773) (domain or fragment)
chain: KSCGALRPVNGVINTLQPVLADHIPGDSSDAEEQLHKKQRLNLVSSSSDGTCVAARTRPVLSCKKRRLVRPNSIVPLSKKVHRNSTIRPGCDVNPSCALCGSGSINTMPPEIHYEAPLLERLSQLDSCVHPVLAFPDDVPTSLHFQSMLKSQWQNKPFDKIKPPKKLSLKHRAPMPGSLPDSARKDRHKLVSSFLTTAKLSHHQTRPDRTHRQHLDDVGAVPMVERVTAPKAERLLN
B1: binds [2].

B2: KANSL2_(381–492) (domain or fragment)
chain: DDLEAGPMDLYLSAAELQPTESLPLEFSDDLDVVGDGMQCPPSPLLFDPSLTLEDHLVKEIAEDPVDILGQMQMAGDGCRSQGSRNSEKASAPLSQSGLATANGKPEPTSIS
B2: binds [3].
